Measured values from patent US20210388087A1 (Chugai, published 2021).

Molecular target: T1, CD3 epsilon homodimer protein (UniProt P07766 23-126)
T1 construct: also called CD3 (CD3 epsilon)
Test: SPR, CD3 epsilon homodimer on chip, one-arm antibody as analyte;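 further: surface plasmon resonance at 25 °C with CD3 epsilon homodimer amine-coupled to a CM4 sensor chip, antibody injected as analyte, HBS-EP+ as running buffer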
Description: An appropriate amount of CD3 epsilon homodimer protein was immobilized onto Sensor chip CM4 (GE Healthcare Japan Corp.) by the amine coupling method. Then, the antibody having an appropriate concentration was injected thereto as an analyte and allowed to interact with the CD3 epsilon homodimer protein on the sensor chip. Then, the sensor chip was regenerated by the injection of 10 mmol/L glycine-HCl (pH 1.5). The assay was conducted at 25 degrees C., and HBS-EP+(GE Healthcare Japan Corp.) was used as a running buffer. […] Each parameter was calculated using Biacore T200 Evaluation Software (GE Healthcare Japan Corp.).

T1 sequence (P07766 23-126): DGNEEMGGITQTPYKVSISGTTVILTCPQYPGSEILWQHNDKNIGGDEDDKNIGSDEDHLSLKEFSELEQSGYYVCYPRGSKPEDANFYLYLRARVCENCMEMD

Binder | KD ratio (KD of CE115HA000/KD of altered form)
CE115HA000 D101T (antibody, human IgG1, kappa, L234A L235A, N297A, name in Kabat numbering, one-arm antibody) heavy: QVQLVESGGGVVQPGRSLRLSCAASGFTFSNAWMHWVRQAPGKGLEWVAQIKAKSNNYATYYAESVKGRFTISRDDSKNSLYLQMNSLKTEDTAVYYCRYVHYGAYYGVTAWGQGTTVTVSSASTKGPSVFPLAPSSKSTSGGTAALGCLVKDYFPEPVTVSWNSGALTSGVHTFPAVLQSSGLYSLSSVVTVPSSSLGTQTYICNVNHKPSNTKVDKKVEPKSCDKTHTCPPCPAPEAAGGPSVFLFPPKPKDTLMISRTPEVTCVVVDVSHEDPEVKFNWYVDGVEVHNAKTKPREEQYASTYRVVSVLTVLHQDWLNGKEYKCKVSNKALPAPIEKTISKAKGQPREPQVYTLPPSRCELTKNQVSLSCAVKGFYPSDIAVEWESNGQPENNYKTTPPVLDSDGSFFLVSKLTVDKSRWQQGNVFSCSVMHEALHNHYTQKSLSLSPDYKDDDDK EPKSSDKTHTCPPCPAPELLGGPSVFLFPPKPKDTLMISRTPEVTCVVVDVSHEDPEVKFNWYVDGVEVHNAKTKPREEQYNSTYRVVSVLTVLHQDWLNGKEYKCKVSNKALPAPIEKTISKAKGQPREPQVCTLPPSRDELTKNQVSLWCLVKGFYPSDIAVEWESNGQPENNYKTTPPVLDSDGSFFLYSKLTVDKSRWQQGNVFSCSVMHEALHNRYTQKSLSLSP light: DIVMTQSPLSLPVTPGEPASISCRSSQSLVHSNRNTYLHWYQQKPGQAPRLLIYKVSNRFSGVPDRFSGSGSGTDFTLKISRVEAEDVGVYYCGQGTQVPYTFGQGTKLEIKRTVAAPSVFIFPPSDEQLKSGTASVVCLLNNFYPREAKVQWKVDNALQSGNSQESVTEQDSKDSTYSLSSTLTLSKADYEKHKVYACEVTHQGLSSPVTKSFNRGEC | 0.62
CE115HA000 D101V (antibody, human IgG1, kappa, L234A L235A, N297A, name in Kabat numbering, one-arm antibody) heavy: QVQLVESGGGVVQPGRSLRLSCAASGFTFSNAWMHWVRQAPGKGLEWVAQIKAKSNNYATYYAESVKGRFTISRDDSKNSLYLQMNSLKTEDTAVYYCRYVHYGAYYGVVAWGQGTTVTVSSASTKGPSVFPLAPSSKSTSGGTAALGCLVKDYFPEPVTVSWNSGALTSGVHTFPAVLQSSGLYSLSSVVTVPSSSLGTQTYICNVNHKPSNTKVDKKVEPKSCDKTHTCPPCPAPEAAGGPSVFLFPPKPKDTLMISRTPEVTCVVVDVSHEDPEVKFNWYVDGVEVHNAKTKPREEQYASTYRVVSVLTVLHQDWLNGKEYKCKVSNKALPAPIEKTISKAKGQPREPQVYTLPPSRCELTKNQVSLSCAVKGFYPSDIAVEWESNGQPENNYKTTPPVLDSDGSFFLVSKLTVDKSRWQQGNVFSCSVMHEALHNHYTQKSLSLSPDYKDDDDK EPKSSDKTHTCPPCPAPELLGGPSVFLFPPKPKDTLMISRTPEVTCVVVDVSHEDPEVKFNWYVDGVEVHNAKTKPREEQYNSTYRVVSVLTVLHQDWLNGKEYKCKVSNKALPAPIEKTISKAKGQPREPQVCTLPPSRDELTKNQVSLWCLVKGFYPSDIAVEWESNGQPENNYKTTPPVLDSDGSFFLYSKLTVDKSRWQQGNVFSCSVMHEALHNRYTQKSLSLSP light: DIVMTQSPLSLPVTPGEPASISCRSSQSLVHSNRNTYLHWYQQKPGQAPRLLIYKVSNRFSGVPDRFSGSGSGTDFTLKISRVEAEDVGVYYCGQGTQVPYTFGQGTKLEIKRTVAAPSVFIFPPSDEQLKSGTASVVCLLNNFYPREAKVQWKVDNALQSGNSQESVTEQDSKDSTYSLSSTLTLSKADYEKHKVYACEVTHQGLSSPVTKSFNRGEC | 1.18
CE115HA000 D101Y (antibody, human IgG1, kappa, L234A L235A, N297A, name in Kabat numbering, one-arm antibody) heavy: QVQLVESGGGVVQPGRSLRLSCAASGFTFSNAWMHWVRQAPGKGLEWVAQIKAKSNNYATYYAESVKGRFTISRDDSKNSLYLQMNSLKTEDTAVYYCRYVHYGAYYGVYAWGQGTTVTVSSASTKGPSVFPLAPSSKSTSGGTAALGCLVKDYFPEPVTVSWNSGALTSGVHTFPAVLQSSGLYSLSSVVTVPSSSLGTQTYICNVNHKPSNTKVDKKVEPKSCDKTHTCPPCPAPEAAGGPSVFLFPPKPKDTLMISRTPEVTCVVVDVSHEDPEVKFNWYVDGVEVHNAKTKPREEQYASTYRVVSVLTVLHQDWLNGKEYKCKVSNKALPAPIEKTISKAKGQPREPQVYTLPPSRCELTKNQVSLSCAVKGFYPSDIAVEWESNGQPENNYKTTPPVLDSDGSFFLVSKLTVDKSRWQQGNVFSCSVMHEALHNHYTQKSLSLSPDYKDDDDK EPKSSDKTHTCPPCPAPELLGGPSVFLFPPKPKDTLMISRTPEVTCVVVDVSHEDPEVKFNWYVDGVEVHNAKTKPREEQYNSTYRVVSVLTVLHQDWLNGKEYKCKVSNKALPAPIEKTISKAKGQPREPQVCTLPPSRDELTKNQVSLWCLVKGFYPSDIAVEWESNGQPENNYKTTPPVLDSDGSFFLYSKLTVDKSRWQQGNVFSCSVMHEALHNRYTQKSLSLSP light: DIVMTQSPLSLPVTPGEPASISCRSSQSLVHSNRNTYLHWYQQKPGQAPRLLIYKVSNRFSGVPDRFSGSGSGTDFTLKISRVEAEDVGVYYCGQGTQVPYTFGQGTKLEIKRTVAAPSVFIFPPSDEQLKSGTASVVCLLNNFYPREAKVQWKVDNALQSGNSQESVTEQDSKDSTYSLSSTLTLSKADYEKHKVYACEVTHQGLSSPVTKSFNRGEC | 0.97

Results, then the binder that gave them:

KD ratio (KD of CE115HA000/KD of altered form) | Binder
0.9 | CE115HA000 E61D (antibody, human IgG1, kappa, L234A L235A, N297A, name in Kabat numbering, one-arm antibody) heavy: QVQLVESGGGVVQPGRSLRLSCAASGFTFSNAWMHWVRQAPGKGLEWVAQIKAKSNNYATYYADSVKGRFTISRDDSKNSLYLQMNSLKTEDTAVYYCRYVHYGAYYGVDAWGQGTTVTVSSASTKGPSVFPLAPSSKSTSGGTAALGCLVKDYFPEPVTVSWNSGALTSGVHTFPAVLQSSGLYSLSSVVTVPSSSLGTQTYICNVNHKPSNTKVDKKVEPKSCDKTHTCPPCPAPEAAGGPSVFLFPPKPKDTLMISRTPEVTCVVVDVSHEDPEVKFNWYVDGVEVHNAKTKPREEQYASTYRVVSVLTVLHQDWLNGKEYKCKVSNKALPAPIEKTISKAKGQPREPQVYTLPPSRCELTKNQVSLSCAVKGFYPSDIAVEWESNGQPENNYKTTPPVLDSDGSFFLVSKLTVDKSRWQQGNVFSCSVMHEALHNHYTQKSLSLSPDYKDDDDK EPKSSDKTHTCPPCPAPELLGGPSVFLFPPKPKDTLMISRTPEVTCVVVDVSHEDPEVKFNWYVDGVEVHNAKTKPREEQYNSTYRVVSVLTVLHQDWLNGKEYKCKVSNKALPAPIEKTISKAKGQPREPQVCTLPPSRDELTKNQVSLWCLVKGFYPSDIAVEWESNGQPENNYKTTPPVLDSDGSFFLYSKLTVDKSRWQQGNVFSCSVMHEALHNRYTQKSLSLSP light: DIVMTQSPLSLPVTPGEPASISCRSSQSLVHSNRNTYLHWYQQKPGQAPRLLIYKVSNRFSGVPDRFSGSGSGTDFTLKISRVEAEDVGVYYCGQGTQVPYTFGQGTKLEIKRTVAAPSVFIFPPSDEQLKSGTASVVCLLNNFYPREAKVQWKVDNALQSGNSQESVTEQDSKDSTYSLSSTLTLSKADYEKHKVYACEVTHQGLSSPVTKSFNRGEC
0.94 | CE115HA000 E61A (antibody, human IgG1, kappa, L234A L235A, N297A, name in Kabat numbering, one-arm antibody) heavy: QVQLVESGGGVVQPGRSLRLSCAASGFTFSNAWMHWVRQAPGKGLEWVAQIKAKSNNYATYYAASVKGRFTISRDDSKNSLYLQMNSLKTEDTAVYYCRYVHYGAYYGVDAWGQGTTVTVSSASTKGPSVFPLAPSSKSTSGGTAALGCLVKDYFPEPVTVSWNSGALTSGVHTFPAVLQSSGLYSLSSVVTVPSSSLGTQTYICNVNHKPSNTKVDKKVEPKSCDKTHTCPPCPAPEAAGGPSVFLFPPKPKDTLMISRTPEVTCVVVDVSHEDPEVKFNWYVDGVEVHNAKTKPREEQYASTYRVVSVLTVLHQDWLNGKEYKCKVSNKALPAPIEKTISKAKGQPREPQVYTLPPSRCELTKNQVSLSCAVKGFYPSDIAVEWESNGQPENNYKTTPPVLDSDGSFFLVSKLTVDKSRWQQGNVFSCSVMHEALHNHYTQKSLSLSPDYKDDDDK EPKSSDKTHTCPPCPAPELLGGPSVFLFPPKPKDTLMISRTPEVTCVVVDVSHEDPEVKFNWYVDGVEVHNAKTKPREEQYNSTYRVVSVLTVLHQDWLNGKEYKCKVSNKALPAPIEKTISKAKGQPREPQVCTLPPSRDELTKNQVSLWCLVKGFYPSDIAVEWESNGQPENNYKTTPPVLDSDGSFFLYSKLTVDKSRWQQGNVFSCSVMHEALHNRYTQKSLSLSP light: DIVMTQSPLSLPVTPGEPASISCRSSQSLVHSNRNTYLHWYQQKPGQAPRLLIYKVSNRFSGVPDRFSGSGSGTDFTLKISRVEAEDVGVYYCGQGTQVPYTFGQGTKLEIKRTVAAPSVFIFPPSDEQLKSGTASVVCLLNNFYPREAKVQWKVDNALQSGNSQESVTEQDSKDSTYSLSSTLTLSKADYEKHKVYACEVTHQGLSSPVTKSFNRGEC
0.82 | CE115HA000 E61P (antibody, human IgG1, kappa, L234A L235A, N297A, name in Kabat numbering, one-arm antibody) heavy: QVQLVESGGGVVQPGRSLRLSCAASGFTFSNAWMHWVRQAPGKGLEWVAQIKAKSNNYATYYAPSVKGRFTISRDDSKNSLYLQMNSLKTEDTAVYYCRYVHYGAYYGVDAWGQGTTVTVSSASTKGPSVFPLAPSSKSTSGGTAALGCLVKDYFPEPVTVSWNSGALTSGVHTFPAVLQSSGLYSLSSVVTVPSSSLGTQTYICNVNHKPSNTKVDKKVEPKSCDKTHTCPPCPAPEAAGGPSVFLFPPKPKDTLMISRTPEVTCVVVDVSHEDPEVKFNWYVDGVEVHNAKTKPREEQYASTYRVVSVLTVLHQDWLNGKEYKCKVSNKALPAPIEKTISKAKGQPREPQVYTLPPSRCELTKNQVSLSCAVKGFYPSDIAVEWESNGQPENNYKTTPPVLDSDGSFFLVSKLTVDKSRWQQGNVFSCSVMHEALHNHYTQKSLSLSPDYKDDDDK EPKSSDKTHTCPPCPAPELLGGPSVFLFPPKPKDTLMISRTPEVTCVVVDVSHEDPEVKFNWYVDGVEVHNAKTKPREEQYNSTYRVVSVLTVLHQDWLNGKEYKCKVSNKALPAPIEKTISKAKGQPREPQVCTLPPSRDELTKNQVSLWCLVKGFYPSDIAVEWESNGQPENNYKTTPPVLDSDGSFFLYSKLTVDKSRWQQGNVFSCSVMHEALHNRYTQKSLSLSP light: DIVMTQSPLSLPVTPGEPASISCRSSQSLVHSNRNTYLHWYQQKPGQAPRLLIYKVSNRFSGVPDRFSGSGSGTDFTLKISRVEAEDVGVYYCGQGTQVPYTFGQGTKLEIKRTVAAPSVFIFPPSDEQLKSGTASVVCLLNNFYPREAKVQWKVDNALQSGNSQESVTEQDSKDSTYSLSSTLTLSKADYEKHKVYACEVTHQGLSSPVTKSFNRGEC
